Patent US20240067690A1
Like-named read-outs stand apart in the source and are kept apart here.

Experiments:
Assay in all cases: cell-based or functional assay
[1] = target: low affinity (IL2Rb/g) IL2 receptor on YT/STAT5-Luc/IL2Ra KO reporter cells (human (human T/NK cell leukemia YT cell line)) (UniProt P14784)
[2] = target: high affinity (IL2Ra/b/g) IL2 receptor on YT/STAT5-Luc/hIL2Ra reporter cells (human; human (human T/NK cell leukemia YT cell line)) (UniProt P01589)
[3] = target: low affinity (IL2Rb/g) IL2 receptor on YT/STAT5-Luc/IL2Ra KO reporter cells (human (human T/NK cell leukemia YT cell line)) (UniProt P14784); remark: listed apart in the source
[4] = target: high affinity (IL2Ra/b/g) IL2 receptor on YT/STAT5-Luc/hIL2Ra reporter cells (human; human (human T/NK cell leukemia YT cell line)) (UniProt P01589); remark: listed apart in the source

Sequence of UniProt P14784 (P14784 27-551, chain 1 of 2): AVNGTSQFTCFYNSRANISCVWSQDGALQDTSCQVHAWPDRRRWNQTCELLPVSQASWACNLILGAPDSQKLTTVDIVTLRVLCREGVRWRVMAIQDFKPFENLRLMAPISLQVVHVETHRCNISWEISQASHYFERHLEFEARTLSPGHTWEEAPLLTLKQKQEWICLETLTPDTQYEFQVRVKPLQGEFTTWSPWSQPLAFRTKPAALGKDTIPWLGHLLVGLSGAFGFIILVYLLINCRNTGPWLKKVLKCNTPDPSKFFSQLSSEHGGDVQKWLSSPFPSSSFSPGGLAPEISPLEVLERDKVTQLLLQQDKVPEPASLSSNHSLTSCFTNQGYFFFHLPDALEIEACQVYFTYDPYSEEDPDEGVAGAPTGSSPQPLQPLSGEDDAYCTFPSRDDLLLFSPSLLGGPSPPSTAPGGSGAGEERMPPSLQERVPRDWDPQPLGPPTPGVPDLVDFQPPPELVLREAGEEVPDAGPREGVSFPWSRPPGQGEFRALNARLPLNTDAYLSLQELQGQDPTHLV
Sequence of UniProt P14784 (P31785 23-369, chain 2 of 2, further chain): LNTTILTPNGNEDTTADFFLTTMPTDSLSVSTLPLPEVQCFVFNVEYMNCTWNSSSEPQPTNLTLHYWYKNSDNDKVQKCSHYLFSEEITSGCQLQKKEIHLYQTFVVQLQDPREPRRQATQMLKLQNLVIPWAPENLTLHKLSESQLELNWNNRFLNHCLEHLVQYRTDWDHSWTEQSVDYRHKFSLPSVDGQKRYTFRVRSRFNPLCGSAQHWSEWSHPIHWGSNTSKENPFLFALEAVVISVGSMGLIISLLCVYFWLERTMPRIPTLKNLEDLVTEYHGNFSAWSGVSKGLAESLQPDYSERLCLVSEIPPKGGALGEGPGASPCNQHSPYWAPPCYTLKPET
Sequence of UniProt P01589 (P01589 22-272, chain 1 of 3): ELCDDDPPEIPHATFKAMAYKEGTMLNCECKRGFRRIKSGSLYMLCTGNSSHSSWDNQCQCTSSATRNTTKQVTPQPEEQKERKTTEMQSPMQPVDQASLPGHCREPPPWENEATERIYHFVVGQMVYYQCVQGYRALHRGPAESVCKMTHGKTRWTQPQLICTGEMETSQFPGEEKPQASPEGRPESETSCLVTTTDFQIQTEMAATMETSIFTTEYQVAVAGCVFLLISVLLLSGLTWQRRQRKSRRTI
Sequence of UniProt P01589 (P14784 27-551, chain 2 of 3, further chain): as the sequence (P14784 27-551, chain 1 of 2) above
Sequence of UniProt P01589 (P31785 23-369, chain 3 of 3, further chain): as the sequence (P31785 23-369, chain 2 of 2, further chain) above

EC50, STAT5-luciferase reporter assay, YT/Stat5-Luc/IL2Ra KO cells [1] | EC50, STAT5-luciferase reporter assay, YT/Stat5-Luc/hIL2Ra cells (M (unit not given)) [2] | Molecule | also measured
0.542 nM |  | IL2-Fc (REGN8189) (Fc fusion) | 
 | 1.65e-11 | IL2-mmh (REGN7183), monomeric human IL-2 with a C-terminal myc-myc-hexahistidine (mmh) tag (ligand; in M (unit assumed)) | 
0.622 nM |  | IL2-mmh (REGN7183), monomeric human IL-2 with a C-terminal myc-myc-hexahistidine (mmh) tag (ligand) | 
0.847 nM | 5.63e-10 | IL2(E68C)-mmh (REGN7184), dimeric human IL-2 (E68C) with a C-terminal myc-myc-hexahistidine (mmh) tag (ligand) | fold less potency than IL2-mmh (REGN7183), STAT5-luciferase reporter assay, YT/STAT5-Luc/hIL2Ra cells [2]: 34 fold
 | 1.69e-11 | IL2-Fc (REGN8189) (Fc fusion; in M (unit assumed)) | 
 |  | IL2(3m)-Fc (REGN8190) (Fc fusion) APTSSSTKKTQLQLEHLLLDLQMILNGINNYKNPKLTRMLTAKFAMPKKATELKHLQCLEEELKPLEEVLNGAQSKNFHLRPRDLISNINVIVLELKGSETTFMCEYADETATIVEFLNRWITFCQSIISTLTGGGGSESKYGPPCPPCPAPPVAGPSVFLFPPKPKDTLMISRTPEVTCVVVDVSQEDPEVQFNWYVDGVEVHNAKTKPREEQFNSTYRVVSVLTVLHQDWLNGKEYKCKVSNKGLPSSIEKTISKAKGQPREPQVYTLPPSQEEMTKNQVSLTCLVKGFYPSDIAVEWESNGQPENNYKTTPPVLDSDGSFFLYSRLTVDKSRWQEGNVFSCSVMHEALHNHYTQKSLSLSLGK | EC50, STAT5-luciferase reporter assay, YT/Stat5-Luc/IL2Ra KO cells [3]: 0.628 nM; EC50, STAT5-luciferase reporter assay, YT/Stat5-Luc/hIL2Ra cells (M (unit not given)) [4]: 5.17e-11; fold less potency than IL2-Fc (REGN8189), STAT5-luciferase reporter assay, YT/STAT5-Luc/hIL2Ra cells [4]: 3 fold
